Test results as given in patent publication US20210403541A1.

Biological target: PD17(p)PS413 (24AWF) (human)
Test: peptide-coated ELISA (1 µg/ml peptide 24AWF coat, anti-human IgG-HRP, ABTS, OD405)

B1: V5-AFM-hIgG4-S228P (antibody, V domains shown)
VH: EVQLVESGGGLVQPGGSLRLSCAASGFTFSSFALNWVRQAPGKGLEWVGHIRSKTNNYVTFYAASVKGRFTVSRDDSQNTAYLQMNSLKTEDTATYYCVRRGPRDSWFGYWGQGTLVTVSS
VL: DIVMTQSPLSLPVTLGEPASISCRSSQKIVHRNANTYLEWYLQKPGQSPQLLIYTVSNRFSGVPDRFSGSGSGTDFTLKISRVEAEDLGVYYCFQGSYLPLTFGGGTKVEIK
EC50 (read off the curve): 0.05 µg/mL
